Laboratory results as given in patent publication US20150099861A1.

Target: CMV peptide 495-503 (pp65) presented on target cells (CMV) (UniProt P06725)

“CD8+ T cells educated against pp65 peptide in the IVE assay (untreated) (cells without a defined receptor)” showed a lysis in the chromium release assay of over 50%.
